Measurements published in paper PMC7275037, “DNA origami-based single-molecule force spectroscopy elucidates RNA Polymerase III pre-initiation complex stability”.
Where “and” joins values, the source holds several entries; their conditions need not be identical. Identical values can stand only once.

B1: U6 snRNA promoter in DNA origami force clamp (dsDNA)
DNA 1: CGGACCAAGATGATTTGATTGAAGGGCTTAAAATAGGTGTTAGAGTAACCCTTGA
DNA 2: TCAAGGGTTACTCTAACACCTATTTTAAGCCCTTCAATCAAATCATCTTGGTCCG

Key:
[1] = target: TBP;TFIIA (single chain);TFIIB (Homo sapiens;Homo sapiens;Homo sapiens?) (UniProt P20226+P52655+P52657+Q00403); assay: smFRET; details: Binding buffer and temperature not in the material (origami folding buffer: 10 mM Tris pH 7.6, 1 mM EDTA, 20 mM MgCl2, 5 mM NaCl); TFIIB 0.2 uM, TFIIA 2 uM …
Chain of TBP;TFIIA (single chain);TFIIB (Homo sapiens;Homo sapiens;Homo sapiens?) (P20226 whole entry, chain 1 of 4): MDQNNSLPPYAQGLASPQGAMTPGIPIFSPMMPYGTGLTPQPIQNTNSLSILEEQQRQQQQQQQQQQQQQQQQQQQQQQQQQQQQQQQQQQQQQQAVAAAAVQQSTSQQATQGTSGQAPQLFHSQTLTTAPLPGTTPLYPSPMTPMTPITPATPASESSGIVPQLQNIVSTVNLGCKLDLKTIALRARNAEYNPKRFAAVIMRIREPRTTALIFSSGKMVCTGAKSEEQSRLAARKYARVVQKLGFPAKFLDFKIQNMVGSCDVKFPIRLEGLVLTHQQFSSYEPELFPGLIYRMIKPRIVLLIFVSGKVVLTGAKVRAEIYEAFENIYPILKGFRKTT
Chain of TBP;TFIIA (single chain);TFIIB (Homo sapiens;Homo sapiens;Homo sapiens?) (P52655 whole entry, chain 2 of 4): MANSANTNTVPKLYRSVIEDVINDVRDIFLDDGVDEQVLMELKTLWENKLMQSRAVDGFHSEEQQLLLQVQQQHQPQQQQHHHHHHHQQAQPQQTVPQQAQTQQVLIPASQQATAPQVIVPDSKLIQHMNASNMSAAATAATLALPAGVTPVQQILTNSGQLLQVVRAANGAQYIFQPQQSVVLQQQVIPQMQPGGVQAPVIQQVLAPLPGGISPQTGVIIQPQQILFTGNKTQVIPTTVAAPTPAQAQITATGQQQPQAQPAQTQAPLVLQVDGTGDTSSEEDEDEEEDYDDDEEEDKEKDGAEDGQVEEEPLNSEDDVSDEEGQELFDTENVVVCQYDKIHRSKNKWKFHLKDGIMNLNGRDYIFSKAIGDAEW
Chain of TBP;TFIIA (single chain);TFIIB (Homo sapiens;Homo sapiens;Homo sapiens?) (P52657 whole entry, chain 3 of 4): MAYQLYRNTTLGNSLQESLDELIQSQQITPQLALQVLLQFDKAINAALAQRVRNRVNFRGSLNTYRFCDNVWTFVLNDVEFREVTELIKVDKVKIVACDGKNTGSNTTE
Chain of TBP;TFIIA (single chain);TFIIB (Homo sapiens;Homo sapiens;Homo sapiens?) (Q00403 whole entry, chain 4 of 4): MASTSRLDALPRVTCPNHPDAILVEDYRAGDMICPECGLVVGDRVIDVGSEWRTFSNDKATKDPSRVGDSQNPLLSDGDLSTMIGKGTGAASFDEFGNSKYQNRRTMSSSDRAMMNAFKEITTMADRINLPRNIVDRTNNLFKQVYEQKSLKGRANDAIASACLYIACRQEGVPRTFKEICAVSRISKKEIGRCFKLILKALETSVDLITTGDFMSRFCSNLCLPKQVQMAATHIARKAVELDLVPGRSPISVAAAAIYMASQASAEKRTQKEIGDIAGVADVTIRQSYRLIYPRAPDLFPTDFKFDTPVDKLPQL

[2] = target: TBP;TFIIA (single chain) (Homo sapiens;Homo sapiens) (UniProt P20226+P52655+P52657); assay: smFRET; details: Binding buffer and temperature not in the material (origami folding buffer: 10 mM Tris pH 7.6, 1 mM EDTA, 20 mM MgCl2, 5 mM NaCl); TFIIB 0.2 uM, TFIIA 2 uM …
Chain of TBP;TFIIA (single chain) (Homo sapiens;Homo sapiens) (P20226 whole entry, chain 1 of 3): as the sequence (P20226 whole entry, chain 1 of 4) above
Chain of TBP;TFIIA (single chain) (Homo sapiens;Homo sapiens) (P52655 whole entry, chain 2 of 3): as the sequence (P52655 whole entry, chain 2 of 4) above
Chain of TBP;TFIIA (single chain) (Homo sapiens;Homo sapiens) (P52657 whole entry, chain 3 of 3): as the sequence (P52657 whole entry, chain 3 of 4) above

TBP = TBP (Homo sapiens, UniProt P20226 169-339); assay: smFRET; TIRF dwell times; 0 pN; 20 nM TBP; E=0.39; Binding buffer and temperature not in the material (origami folding buffer: 10 mM Tris pH 7.6, 1 mM EDTA, 20 mM MgCl2, 5 mM NaCl); TFIIB 0.2 uM, TFIIA 2 uM, other proteins 20 nM; details: protein: recombinant; tags: N-terminal His; label: ATTO 532 and ATTO 647N on S17 strand (positions by colour only); ds region (U6_comp) within ssDNA spring
Chain of TBP (P20226 169-339): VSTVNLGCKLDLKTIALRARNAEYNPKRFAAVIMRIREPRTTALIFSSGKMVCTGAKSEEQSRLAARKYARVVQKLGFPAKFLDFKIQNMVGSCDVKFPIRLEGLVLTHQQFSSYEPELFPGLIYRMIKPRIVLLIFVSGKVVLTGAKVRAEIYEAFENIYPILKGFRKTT

Molecule	binding signal (% high FRET (bent)) [1]	binding signal (% high FRET (bent)) [2]	binding result (TBP)
AAGCTTTAGGGCGCCTATAAAAGGGGGTTCGGGCG (double strand) [AdMLP promoter in DNA origami force clamp]	72 and 53	26	
B1			binds
